Measured values from PMC12608037.

Assays:
[1] = tested on: YihW (CsqR) K-12 MG1655 (Escherichia coli K-12 MG1655); assay: EMSA; conditions: 50 mM Tris-Cl (pH not stated), 100 mM KCl, 50% glycerol, 1 mM EDTA (1x); 0.5 pmol DNA, 2-24 pmol YihW; 30 or 37 C, 30 min; 5% PAGE in 1x TBE; scale: protein:DNA molar ratio for complete binding
[2] = tested on: YihW (CsqR) Nissle 1917 (Escherichia coli Nissle 1917); assay: EMSA; conditions: 50 mM Tris-Cl (pH not stated), 100 mM KCl, 50% glycerol, 1 mM EDTA (1x), 0.5 pmol DNA, 2-24 pmol YihW, 30 or 37 C, 30 min, 5% PAGE in 1x TBE, scale: protein:DNA molar ratio for complete binding

Substance	binding signal [1]	binding signal ([2]; 30 C, equal efficiency to Nissle fragment)	binding signal ([2]; 30 C)	binding signal ([2]; 37 C, some DNA free at 48x, weaker than K-12 fragment)
yihU/V intergenic region, K-12 MG1655	16	24		
yihU/V intergenic region, Nissle 1917	16		24	> 48
